Publication PMC5009728 (Nucleic Acids Research, 2016)

Columns and labels:
[1] = biological target: 6×His-thioredoxin-fused ZAD domain of Zw5 (aa 1–103) (Drosophila melanogaster); experiment: cross-linking
[2] = biological target: the molecule itself; experiment: cross-linking

Molecule | stoichiometry N [1] | stoichiometry N [2]
6×His-thioredoxin-fused ZAD domain of Zw5 (aa 1–103) (domain or fragment) | 2 | –
6×His-thioredoxin-fused ZAD domain of Grauzone (aa 1–84) (domain or fragment, Drosophila melanogaster, UniProt Q9U405 1-84, looked up) MDICRLCLRGVSGAQMCLQIFDVDSGESKVAEVLRQHFWFEVLPNDEISKVICNVCWTQVSEFHQFYVSIQEAQVIYATTSKFK | – | 2
6×His-thioredoxin-fused ZAD domain of Pita (aa 1–109) (domain or fragment, Drosophila melanogaster, UniProt Q95RQ8 1-109, looked up) MAAKLEVREAMLTEKRVCRFCLTEQKLASIFEENPRVKTTANLPLQIMAITAIEVYAGDGMPGHICLECRLLFEHCYRFKQMCKRAETLLRQYPLTGNWPSPLEKPRAP | – | 2
6×His-thioredoxin-fused ZAD domain of ZIPIC (aa 3–81) (domain or fragment, Drosophila, UniProt Q9VAB8 3-81, looked up) CCICQFSVRVPKDIHTDTVGHPPVLISELVLQCTRGTNYVLTEESSTICKKCCEKLARYHKSIQIARKLRGEILELIHS | – | 2
